Results on one protein are retold here after patent US20160244802A1 (UNIVERSITY OF NORTH CAROLINA AT CHAPEL HILL, published 2016).

The data set deals with the molecule itself. In words: gel filtration (Sephacryl S300) native size against about 150 kDa on SDS-PAGE; inference. As for the experimental part:
The bound proteins were eluted with a 12-cv linear gradient from BD50 to BD450. The flow-through containing the HDM activity was adjusted to 700 mM ammonium sulfate before it was loaded onto a 22 mL Phenyl Sepharose® column (Pharmacia). The bound proteins were eluted with a cv linear gradient from BD700 to BD0. The active fractions, which eluted from 10-BD150-BD50, were combined and concentrated to 5 mL before they were loaded onto a 120 mL Sephacyl® S300 gel filtration column (Pharmacia). The active fractions, which eluted around 300 kDa, were pooled and loaded onto a 1 mL MonoS® column (Pharmacia) equilibrated with BC50. Bound proteins were eluted with a 20-cv linear gradient from BC50 to BC400. The active fractions eluted from BC100 to BC150. […]
To identify the protein(s) responsible for this demethylase activity, we monitored the enzymatic activity through five chromatography columns (Scheme 5). After purification of the 0.3 M P11 fraction through DEAE5PW and Phenyl Sepharose® columns, we determined that the native mass of the enzymatic activity was about 300 kDa as assessed by a Sephacyl® S300 column (FIG. 9A). […] To verify that JMJD1A was responsible for the detected demethylase activity, an antibody against this protein was generated and used to immunoprecipitate JMJD1A from the MonoS® column fractions 21-29. […]

B1: native JHDM2A (JMJD1A) purified from HeLa cells (enzyme)
chain: MVLTLGESWPVLVGRRFLSLSAADGSDGSHDSWDVERVAEWPWLSGTIRAVSHTDVTKKDLKVCVEFDGESWRKRRWIEVYSLLRRAFLVEHNLVLAERKSPEISERIVQWPAITYKPLLDKAGLGSITSVRFLGDQQRVFLSKDLLKPIQDVNSLRLSLTDNQIVSKEFQALIVKHLDESHLLKGDKNLVGSEVKIYSLDPSTQWFSATVINGNPASKTLQVNCEEIPALKIVDPSLIHVEVVHDNLVTCGNSARIGAVKRKSSENNGTLVSKQAKSCSEASPSMCPVQSVPTTVFKEILLGCTAATPPSKDPRQQSTPQAANSPPNLGAKIPQGCHKQSLPEEISSCLNTKSEALRTKPDVCKAGLLSKSSQIGTGDLKILTEPKGSCTQPKTNTDQENRLESVPQALTGLPKECLPTKASSKAELEIANPPELQKHLEHAPSPSDVSNAPEVKAGVNSDSPNNCSGKKVEPSALACRSQNLKESSVKVDNESCCSRSNNKIQNAPSRKSVLTDPAKLKKLQQSGEAFVQDDSCVNIVAQLPKCRECRLDSLRKDKEQQKDSPVFCRFFHFRRLQFNKHGVLRVEGFLTPNKYDNEAIGLWLPLTKNVVGIDLDTAKYILANIGDHFCQMVISEKEAMSTIEPHRQVAWKRAVKGVREMCDVCDTTIFNLHWVCPRCGFGVCVDCYRMKRKNCQQGAAYKTFSWLKCVKSQIHEPENLMPTQIIPGKALYDVGDIVHSVRAKWGIKANCPCSNRQFKLFSKPASKEDLKQTSLAGEKPTLGAVLQQNPSVLEPAAVGGEAASKPAGSMKPACPASTSPLNWLADLTSGNVNKENKEKQPTMPILKNEIKCLPPLPPLSKSSTVLHTFNSTILTPVSNNNSGFLRNLLNSSTGKTENGLKNTPKILDDIFASLVQNKTTSDLSKRPQGLTIKPSILGFDTPHYWLCDNRLLCLQDPNNKSNWNVFRECWKQGQPVMVSGVHHKLNSELWKPESFRKEFGEQEVDLVNCRTNEIITGATVGDFWDGFEDVPNRLKNEKEPMVLKLKDWPPGEDFRDMMPSRFDDLMANIPLPEYTRRDGKLNLASRLPNYFVRPDLGPKMYNAYGLITPEDRKYGTTNLHLDVSDAANVMVYVGIPKGQCEQEEEVLKTIQDGDSDELTIKRFIEGKEKPGALWHIYAAKDTEKIREFLKKVSEEQGQENPADHDPIHDQSWYLDRSLRKRLHQEYGVQGWAIVQFLGDVVFIPAGAPHQVHNLYSCIKVAEDFVSPEHVKHCFWLTQEFRYLSQTHTNHEDKLQVKNVIYHAVKDAVAMLKASESSFGKP
notes: Endogenous protein in MonoS column fractions from HeLa nuclear extract; also called TSGA
As to B1, the binding result is on record as “binds”.
